Tests used:
[1] = target: T1, recombinant human VEGF165 (human, UniProt P15692-4 27-191); experiment: ELISA screen, periplasmic extract on coated hVEGF165
T1 construct: also called hVEGF165; rhVEGF165
Text: Wells are blocked with a casein solution (1%). After addition of typically a 10-fold dilution of the periplasmic extracts, VHH binding is detected using a mouse anti-myc (Roche) and an anti-mouse-HRP conjugate (DAKO). Clones showing ELISA signals of >3-fold above background are considered as VEGF binding VHHs.

[2] = target: T1, recombinant human VEGF165; experiment: Biacore, periplasmic extract on hVEGF165 chip, two phase decay fit
Protocol: (§1) Dissociation rates of inhibitory VHHs are analyzed on Biacore (Biacore T100 instrument, GE Healthcare). HBS-EP+ buffer is used as running buffer and experiments are performed at 25° C. […] After immobilization, surfaces are deactivated with 10 min injection of 1M ethanolamine pH8.5. A reference surface is activated and deactivated with respectively EDC/NHS and ethanolamine. Periplasmic extracts of VHHs are injected at a 10-fold dilution in running buffer for 2 min at 45 μl/min and allowed to dissociate for 10 or 15 min. Between different samples, the surfaces are regenerated with regeneration buffer. Data are double referenced by subtraction of the curves on the reference channel and of a blank running buffer injection. […] is evaluated by fitting a two phase decay model in the Biacore T100 Evaluation software v2.0.1.

[3] = target: T1, recombinant human VEGF165; experiment: Biacore, periplasmic extract on hVEGF165 chip
Protocol: as §1

T1 sequence (P15692 other isoform, or with tags, fused parts or gaps limits assumed): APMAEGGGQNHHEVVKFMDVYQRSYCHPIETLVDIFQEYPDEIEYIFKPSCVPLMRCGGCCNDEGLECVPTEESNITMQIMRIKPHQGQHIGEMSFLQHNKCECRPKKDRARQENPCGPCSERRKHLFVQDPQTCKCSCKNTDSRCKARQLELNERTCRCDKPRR

binding result [1]	% fast [2]	Binding level (RU) [3]	Binder
binds	–	–	VEGFBII01E07 (VHH) VHH: EVQLVESGGGLVQAGDSLRLSCVATGRTFRASDMGWFRQAPGKEREFVAAINWSGLSTFYTDSVKGRFTISRDNDNGALYLQMNTLKPEDTAVYSCAAGRIPSSSRFSSPAAYASWGQGTQVTVSS
binds	–	–	VEGFBII89D04 (VHH) VHH: EVQLVESGGGLVQPGGSLRLSCATSGLTFSDYNLGWFRQAPGKERQFVAVISWRDSFAYYAEPVKGRFTISRDNAKNTVYLQMNSLKPEDTAVYYCAADRVSSRLVLPNTSPDFGSWGQGTQVTVSS
binds	–	–	VEGFBII89F09 (VHH) VHH: EVQLVESGGGLVQAGDSLRLSCAASGRTFNNAIMGWFRQAPGQEREFVAAMNWRGGPTYYADSVKGRFTISGDNTKNTVFLQMNFLKPEDTAVYYCAADEDLYHYSSYHYSRVDLYHYWGQGTQVTVSS
binds	–	–	VEGFBII88A02 (VHH) VHH: EVQLVESGGGLVQAGGSLRLSCAASGFTFGDYDIGWFRQAPGNEREGVSCITTDVGTTYYADSVKGRFTISSDNAKNTVYLQINDLKPEDTAIYYCAVDTQDLGLDIFCRGNGPFDGWGQGTQVTVSS
binds	–	–	VEGFBII88G11 (VHH) VHH: EVQLVESGGGLAQAGGSLRLSCAASGRTFSGSDMGWFRQSPGKEREIVAAIRLSGSITYYPDSVKGRFTISRDNAKNTVYLQMNSLKPEDTAVYYCAARSTYSYYLALADRGGYDYWGQGTQVTVSS
binds	–	–	VEGFBII89B04 (VHH) VHH: EVQLVESGGGLVQAGGSLRLSCAASTSISSTNFMGWYRQAPGKQRELVATITSSSITNYVDSVKGRFTISRDNAKNTVYLQMTSLKPEDTAVYYCHARWRWSDVEYWGKGTLVTVSS
binds	–	–	VEGFBII86G08 (VHH) VHH: EVQLVESGGGLMQTGDSLRLSCAASGLRFTSTNMGWFRQGPGKEREFVAAITLSGTTYYAEAVKGRFTISRDNDKNTVALQMNSLKPEDTAVYYCGADPSYYSTSRYTKATEYDYWGQGTQVTVSS
binds	–	–	VEGFBII89H08 (VHH) VHH: EVQLVESGGGLVQAGGSLRLSCAASGGSFSSYAPGWFRQAPGKEREFVAAFTRSSNIPYYKDSVKGRFTISRDNAHTVYLQMNSLKPEDTAIYYCAVNLGSTWSRDQRTYDYWGQGTQVTVSS
binds	–	–	VEGFBII86G10 (VHH) VHH: EVQLVESGGGLVQAGGSLRLSCAASGRTFNTYTMGWFRQTPGTEREFVAAIRWTVNITYYADSVKGRFTISRDIVKNTVYLQMNSLKPEDTAVYYCAAQTSAPRSLIRMSNEYPYWGQGTQVTVSS
binds	–	–	VEGFBII88A01 (VHH) VHH: KVQLVESGGGLVQAGGSLRLSCAASERTFSNYAMDWFRQAPGKEREFVAAITRSGGGTYYADSVKGRFTISRDNAKNTVYLQMNSLKPEDTAVYYCAATRSSTIVVGVGGMEYWGKGTLVTVSS
binds	–	–	VEGFBII88E02 (VHH) VHH: EVQLVESGGGLVQPGGSLRLSCVASGFRLDDYAIGWFRQAPGKEREAVSCISSSDTSIDYTNSVKGRFTFSRDNAKNTVYLQMNSLKPEDTAVYYCAAAFRCSGYELRGFPTWGQGTQVTVSS
binds	–	–	VEGFBII86G11 (VHH) VHH: EVQLVESGGGLVQAGGSLRLSCAASGLTFSLYTVGWFRQAPGKEREFVAYISRSGSNRYYVDSVKGRFTLSRDNAKNTVDLQMNSLKTEDTAVYYCAATSRGLSSLAGEYNYWGRGTQVTVSS
binds	–	–	VEGFBII88G03 (VHH) VHH: EVQLVESGGGLVQAGGSLRLSCAASGGTFSSLAVGWFRQAPGKEREFVARITWSGATTYYADAVKDRFTISRDNAKNTMYLQMNSLKPEDTAVYYCAADRSPNIINVVTAYEYDYWGQGTQVTVSS
binds	–	–	VEGFBII89B08 (VHH) VHH: EVQLVESGGGLVQPGGSLRLSCAASGTTSSIFAMRWYRQAPGKQRELVASITRSSITTYADSVKGRFTPSRDNAKNTVSLQMNSLKPEDTAVYYCNAAIRPELYSVVNDYWGQGTQVTVSS
binds	–	–	VEGFBII89G09 (VHH) VHH: EVQLVESGGGLVQPGGSLRLSCAASGTTSSIFAMRWYRQAPGKQRELVASITRSSITTYADSVKGRFTLSRDNAKNTVSLQMNSLKPEDTAVYYCNAAIRPELYSVVNDYWGQGTQVTVSS
binds	–	–	VEGFBII87B07 (VHH) VHH: EVQLVESGGGLVQPGGSLKLSCTASGFTFSTSWMHWVRQAPGKGLEWVSSIPPVGHFANYAPSVKGRFTISRDNAKNTLFLQMNSLKSEDTAVYYCAKDSAGRTKGQGTQVTVSS
binds	–	–	VEGFBII88B02 (VHH) VHH: EVQLVESGGGLVQPGGSLRLSCTASGLNLDDYAIGWFRQAPGKEREGVSCISSYDSVTYYADHVKGRFTISRDSAKNTLYLQMNSLSIEDTGVYYCAAEREQLRRRESPHDELLRLCFYGMRYSGKGTLVTVSS
binds	–	–	VEGFBII01C02 (VHH) VHH: EVQLVESGGGLVQAGGSLRLSCTASGGSFSSYGMGWFRQSPGKEREFVSAISEYSNTYCSDSVRGRFTISRDNTKNTVYLQMNSLTPDDTAIYYCAASPTILLTTEQWYKYWGQGTQVTVSS
binds	–	–	VEGFBII88G05 (VHH) VHH: EVQLVESGGGLVQPGASLRLSCAASGDGFTLYNMGWFRQAPGKEREFVAAITSSPMSTYYADSVKGRFSISINNDKTTGFLQMNVLKPEDTGVYFCAAPEGSFRRQYADRAMYDYWGQGTQVTVSS
–	15%	487 RU	VEGFBII23A03 (VHH, periplasmic extract) VHH: EVQLVESGGGLVQPGDSLKLSCVASGRTFSSYSMGWFRQAQGKEREFVVAISSGGYIYDSVSLQGRFTISRDNTKNTVYLQTPSLKPEDTAVYYCAASRAYGSSRLRLADTYDYWGQGTQVTVSS
–	12%	461 RU	VEGFBII22A11 (VHH, periplasmic extract) VHH: EVQLVESGGGLVQPGDSLKLSCAFSGRTFSSYSMAWFRQAQGKEREFVVAISSGGFIYDAVSLEGRFTISRDNTKNTVYLQTPSLKPEDTAVYYCAASRAYGSSRLRLADTYDYWGQGTQVTVSS
–	13%	225 RU	VEGFBII27D08 (VHH, periplasmic extract) VHH: EVQLVESGGGLVQTGDSLRLSCAASGRTFSSYSMGWFRQAQGKEREFVVAISSGGYKYDSVSLEGRFTISRDNTQNTVYLQINSLKPEDTAVYYCAASRAYGSGRLRLADTYDYWGQGTQVTVSS
–	18%	471 RU	VEGFBII27G07 (VHH, periplasmic extract) VHH: EVQLVESGGGLVQPGDSLKLSCVASGRTSSSYSMGWFRQAQGQEREFVVAISSGGYIYDSVSLQGRFTISRDNTKNTVYLQTPSLKPEDTAVYYCAASRAYGSSRLRLADTYDYWGQGTQVTVSS
–	14%	520 RU	VEGFBII22E04 (VHH, periplasmic extract) VHH: EVQLVESGGGLVQPGDSLKLSCVASGRTSSSYSMGWFRQAQGKEREFVVAISSGGSIYDSVSLQGRFTISRDNTKNTVYLQTPSLKPEDTAVYYCAASRAYASSRLRLADTYDYWGQGTQVTVSS
–	19%	264 RU	VEGFBII30C09 (VHH, periplasmic extract; also called VEGFBII30009) VHH: EVQLVESGGGLVQPGDSLKLSCIASGRTSSSYSMGWFRQAQGQEREFVVAISSGGYIYDSVSLQGRFTISRDNTKNTVYLQTPSLKPEDTAVYYCAASRAYGSSRLRLADTYDYWGQGTQVTVSS
–	18%	275 RU	VEGFBII23E05 (VHH, periplasmic extract) VHH: EVQLVESEGGLVQPGDSLKLSCVASGRTSSSYSMGWFRQAQGKEREFVVAISSGGYIYDSVSLQGRFTISRDNTKNTVYLQTPSLKPEDTAVYYCAASRAYGSSRLRLADTYDYWGQGTQVTVSS
–	19%	502 RU	VEGFBII23A08 (VHH, periplasmic extract) VHH: EVQLVESGGGLVQTGDSLRLSCVASGRTFSSYSMGWFRQAQGKEREFVVAISNGGYKYDSVSLEGRFTISRDNTKNTVYLQINSLKPEDTAVYYCAASRAYGSSRLRLADTYDYWGQGTQVTVSS
–	13%	510 RU	VEGFBII23D11 (VHH, periplasmic extract) VHH: EVQLVESGGGLVQPGDSLRLSCAFSGRTFSSYSMAWFRQAQGKEREFVVAISSGGFIYDAVSLEGRFTISRDNTKNTVYLQTPSLKPEDTAVYYCAASRAYGSSRLRLADTYDYWGQGTQVTVSS
binds	–	–	VEGFBII88H01 (VHH) VHH: EVQLVESGGGLVQAGGSLRLSCVASGFTLGTYAIGWFRQAPGKEREAVSCMSAGDSIPWYTASVKGRFTTSTDNARNTVYLQMNSLKPEDTAHYYCAAARYHGDYCYYEGYYPFWGQGTQVTVSS
